This sample holds only a part of the variants without activity.
Tests used:
biotinyl-Phe-oxazolone = test: self-aminoacylation, catalytic enhancement (BFO) (fold over background); higher = more active; k-Seq, kA / k0A0; sequences stand for … in GGGAAUGGAUCCACAUCUACGAAUUC…UUCACUGCAGACUUGACGAAGCUG
Summary of the method: (§1)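 Working in 50 μL HEPES/NaCl/KCl/MgCl2/CaCl2 buffer with 5% acetonitrile at pH 6.9–7.0, mutagenized RNA pools (0.43 μM; 21-nt variable region) were reacted with 2–1250 μM of each biotinyl-aminoacyl-oxazolone for 90 minutes at room temperature. Streptavidin capture followed, with quantification by triplicate qPCR and Illumina sequencing. Catalytic enhancement is reported as median kA over the uncatalyzed rate, the low-activity peak of a bimodal Gaussian fit to the data.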

biotinyl-Ile-oxazolone = test: self-aminoacylation, catalytic enhancement (BIO) (fold over background); higher = more active; k-Seq, kA / k0A0; sequences stand for … in GGGAAUGGAUCCACAUCUACGAAUUC…UUCACUGCAGACUUGACGAAGCUG
Summary of the method: as §1

biotinyl-Met-oxazolone = test: self-aminoacylation, catalytic enhancement (BMO) (fold over background); higher = more active; k-Seq, kA / k0A0; sequences stand for … in GGGAAUGGAUCCACAUCUACGAAUUC…UUCACUGCAGACUUGACGAAGCUG
Summary of the method: as §1

biotinyl-Val-oxazolone = test: self-aminoacylation, catalytic enhancement (BVO) (fold over background); higher = more active; k-Seq, kA / k0A0; sequences stand for … in GGGAAUGGAUCCACAUCUACGAAUUC…UUCACUGCAGACUUGACGAAGCUG
Summary of the method: as §1

biotinyl-Leu-oxazolone = test: self-aminoacylation, catalytic enhancement (BLO) (fold over background); higher = more active; k-Seq, kA / k0A0; sequences stand for … in GGGAAUGGAUCCACAUCUACGAAUUC…UUCACUGCAGACUUGACGAAGCUG
Summary of the method: as §1

biotinyl-Trp-oxazolone = test: self-aminoacylation, catalytic enhancement (BWO) (fold over background); higher = more active; k-Seq, kA / k0A0; sequences stand for … in GGGAAUGGAUCCACAUCUACGAAUUC…UUCACUGCAGACUUGACGAAGCUG
Summary of the method: as §1

CUACUGAAAACAAUCGGUCUG [Fam1A.1 aminoacylation ribozyme variant]
self-aminoacylation (biotinyl-Phe-oxazolone): 0.542
self-aminoacylation (biotinyl-Ile-oxazolone): 0.84
self-aminoacylation (biotinyl-Met-oxazolone): 0.735
self-aminoacylation (biotinyl-Val-oxazolone): 0.706
self-aminoacylation (biotinyl-Leu-oxazolone): 0.708
self-aminoacylation (biotinyl-Trp-oxazolone): 0.78

CUACUGCCAACAAUCGGUCUG [Fam1A.1 aminoacylation ribozyme variant]
self-aminoacylation (biotinyl-Phe-oxazolone): 0.775
self-aminoacylation (biotinyl-Ile-oxazolone): 0.744
self-aminoacylation (biotinyl-Met-oxazolone): 0.773
self-aminoacylation (biotinyl-Val-oxazolone): 0.744
self-aminoacylation (biotinyl-Leu-oxazolone): 0.64
self-aminoacylation (biotinyl-Trp-oxazolone): 0.531

CUACUUAAAACAAUCGGUCUU [Fam1A.1 aminoacylation ribozyme variant]
self-aminoacylation (biotinyl-Phe-oxazolone): 0.533
self-aminoacylation (biotinyl-Ile-oxazolone): 0.742
self-aminoacylation (biotinyl-Met-oxazolone): 0.799
self-aminoacylation (biotinyl-Val-oxazolone): 0.706
self-aminoacylation (biotinyl-Leu-oxazolone): 0.617
self-aminoacylation (biotinyl-Trp-oxazolone): 0.524

CUACUUAAAACAAUCGGUUUG [Fam1A.1 aminoacylation ribozyme variant]
self-aminoacylation (biotinyl-Phe-oxazolone): 0.655
self-aminoacylation (biotinyl-Ile-oxazolone): 0.672
self-aminoacylation (biotinyl-Met-oxazolone): 0.718
self-aminoacylation (biotinyl-Val-oxazolone): 0.627
self-aminoacylation (biotinyl-Leu-oxazolone): 0.621
self-aminoacylation (biotinyl-Trp-oxazolone): 0.596

CUACUUAAAACAGUCGGUCUG [Fam1A.1 aminoacylation ribozyme variant]
self-aminoacylation (biotinyl-Phe-oxazolone): 0.624
self-aminoacylation (biotinyl-Ile-oxazolone): 0.799
self-aminoacylation (biotinyl-Met-oxazolone): 0.742
self-aminoacylation (biotinyl-Val-oxazolone): 0.78
self-aminoacylation (biotinyl-Leu-oxazolone): 1.05
self-aminoacylation (biotinyl-Trp-oxazolone): 0.454

CUACUUCAAAAAAGCGGUCUG [Fam1A.1 aminoacylation ribozyme variant]
self-aminoacylation (biotinyl-Phe-oxazolone): 0.451
self-aminoacylation (biotinyl-Ile-oxazolone): 0.999
self-aminoacylation (biotinyl-Met-oxazolone): 1.02
self-aminoacylation (biotinyl-Val-oxazolone): 0.801
self-aminoacylation (biotinyl-Leu-oxazolone): 0.966
self-aminoacylation (biotinyl-Trp-oxazolone): 0.633

CUACUUCAAAAAAUCCGUCUG [Fam1A.1 aminoacylation ribozyme variant]
self-aminoacylation (biotinyl-Phe-oxazolone): 1.02
self-aminoacylation (biotinyl-Ile-oxazolone): 0.834
self-aminoacylation (biotinyl-Met-oxazolone): 0.854
self-aminoacylation (biotinyl-Val-oxazolone): 0.945
self-aminoacylation (biotinyl-Leu-oxazolone): 0.682
self-aminoacylation (biotinyl-Trp-oxazolone): 0.897

CUACUUCAAAAAAUCGGUCUG [Fam1A.1 aminoacylation ribozyme variant]
self-aminoacylation (biotinyl-Phe-oxazolone): 11.8
self-aminoacylation (biotinyl-Ile-oxazolone): 1
self-aminoacylation (biotinyl-Met-oxazolone): 0.758
self-aminoacylation (biotinyl-Val-oxazolone): 0.795
self-aminoacylation (biotinyl-Leu-oxazolone): 0.92
self-aminoacylation (biotinyl-Trp-oxazolone): 7.37

CUACUUCAAAAAAUCGGUCUU [Fam1A.1 aminoacylation ribozyme variant]
self-aminoacylation (biotinyl-Phe-oxazolone): 5.8
self-aminoacylation (biotinyl-Ile-oxazolone): 1.02
self-aminoacylation (biotinyl-Met-oxazolone): 0.966
self-aminoacylation (biotinyl-Val-oxazolone): 0.807
self-aminoacylation (biotinyl-Leu-oxazolone): 1.05
self-aminoacylation (biotinyl-Trp-oxazolone): 4.11

CUACUUCAAAAAAUCUGUCUG [Fam1A.1 aminoacylation ribozyme variant]
self-aminoacylation (biotinyl-Phe-oxazolone): 1.36
self-aminoacylation (biotinyl-Ile-oxazolone): 0.84
self-aminoacylation (biotinyl-Met-oxazolone): 0.589
self-aminoacylation (biotinyl-Val-oxazolone): 0.699
self-aminoacylation (biotinyl-Leu-oxazolone): 0.61
self-aminoacylation (biotinyl-Trp-oxazolone): 0.797

CUACUUCAAACAAACAGUCUG [Fam1A.1 aminoacylation ribozyme variant]
self-aminoacylation (biotinyl-Phe-oxazolone): 0.8
self-aminoacylation (biotinyl-Ile-oxazolone): 0.864
self-aminoacylation (biotinyl-Met-oxazolone): 0.54
self-aminoacylation (biotinyl-Val-oxazolone): 0.728
self-aminoacylation (biotinyl-Leu-oxazolone): 0.671
self-aminoacylation (biotinyl-Trp-oxazolone): 0.534

CUACUUCAAACAAACGAUCUG [Fam1A.1 aminoacylation ribozyme variant]
self-aminoacylation (biotinyl-Phe-oxazolone): 0.828
self-aminoacylation (biotinyl-Ile-oxazolone): 0.693
self-aminoacylation (biotinyl-Met-oxazolone): 0.728
self-aminoacylation (biotinyl-Val-oxazolone): 0.779
self-aminoacylation (biotinyl-Leu-oxazolone): 0.569
self-aminoacylation (biotinyl-Trp-oxazolone): 0.336

CUACUUCAAACAAACGGACUG [Fam1A.1 aminoacylation ribozyme variant]
self-aminoacylation (biotinyl-Phe-oxazolone): 0.548
self-aminoacylation (biotinyl-Ile-oxazolone): 0.684
self-aminoacylation (biotinyl-Met-oxazolone): 0.473
self-aminoacylation (biotinyl-Val-oxazolone): 0.718
self-aminoacylation (biotinyl-Leu-oxazolone): 0.546
self-aminoacylation (biotinyl-Trp-oxazolone): 0.574

CUACUUCAAACAAACGGUCUU [Fam1A.1 aminoacylation ribozyme variant]
self-aminoacylation (biotinyl-Phe-oxazolone): 0.824
self-aminoacylation (biotinyl-Ile-oxazolone): 0.904
self-aminoacylation (biotinyl-Met-oxazolone): 0.982
self-aminoacylation (biotinyl-Val-oxazolone): 0.901
self-aminoacylation (biotinyl-Leu-oxazolone): 0.879
self-aminoacylation (biotinyl-Trp-oxazolone): 0.74

CUACUUCAAACAAACGGUUUG [Fam1A.1 aminoacylation ribozyme variant]
self-aminoacylation (biotinyl-Phe-oxazolone): 0.656
self-aminoacylation (biotinyl-Ile-oxazolone): 0.803
self-aminoacylation (biotinyl-Met-oxazolone): 0.719
self-aminoacylation (biotinyl-Val-oxazolone): 0.796
self-aminoacylation (biotinyl-Leu-oxazolone): 0.67
self-aminoacylation (biotinyl-Trp-oxazolone): 0.396

CUACUUCAAACAACCGGGCUG [Fam1A.1 aminoacylation ribozyme variant]
self-aminoacylation (biotinyl-Phe-oxazolone): 2.15
self-aminoacylation (biotinyl-Ile-oxazolone): 1.46
self-aminoacylation (biotinyl-Met-oxazolone): 1.35
self-aminoacylation (biotinyl-Val-oxazolone): 1.22
self-aminoacylation (biotinyl-Leu-oxazolone): 1.27
self-aminoacylation (biotinyl-Trp-oxazolone): 0.852

CUACUUCAAACAACCGGUCCG [Fam1A.1 aminoacylation ribozyme variant]
self-aminoacylation (biotinyl-Phe-oxazolone): 0.643
self-aminoacylation (biotinyl-Ile-oxazolone): 0.993
self-aminoacylation (biotinyl-Met-oxazolone): 0.703
self-aminoacylation (biotinyl-Val-oxazolone): 1.01
self-aminoacylation (biotinyl-Leu-oxazolone): 0.962
self-aminoacylation (biotinyl-Trp-oxazolone): 1

CUACUUCAAACAACCGGUCUU [Fam1A.1 aminoacylation ribozyme variant]
self-aminoacylation (biotinyl-Phe-oxazolone): 0.875
self-aminoacylation (biotinyl-Ile-oxazolone): 1.32
self-aminoacylation (biotinyl-Met-oxazolone): 0.686
self-aminoacylation (biotinyl-Val-oxazolone): 0.899
self-aminoacylation (biotinyl-Leu-oxazolone): 0.871
self-aminoacylation (biotinyl-Trp-oxazolone): 1.05

CUACUUCAAACAACCGUUCUG [Fam1A.1 aminoacylation ribozyme variant]
self-aminoacylation (biotinyl-Phe-oxazolone): 0.558
self-aminoacylation (biotinyl-Ile-oxazolone): 0.723
self-aminoacylation (biotinyl-Met-oxazolone): 0.611
self-aminoacylation (biotinyl-Val-oxazolone): 0.676
self-aminoacylation (biotinyl-Leu-oxazolone): 0.625
self-aminoacylation (biotinyl-Trp-oxazolone): 0.515

CUACUUCAAACAAGCGCUCUG [Fam1A.1 aminoacylation ribozyme variant]
self-aminoacylation (biotinyl-Phe-oxazolone): 0.571
self-aminoacylation (biotinyl-Ile-oxazolone): 0.868
self-aminoacylation (biotinyl-Met-oxazolone): 0.654
self-aminoacylation (biotinyl-Val-oxazolone): 0.86
self-aminoacylation (biotinyl-Leu-oxazolone): 0.852
self-aminoacylation (biotinyl-Trp-oxazolone): 0.842

CUACUUCAAACAAGUGGUCUG [Fam1A.1 aminoacylation ribozyme variant]
self-aminoacylation (biotinyl-Phe-oxazolone): 0.734
self-aminoacylation (biotinyl-Ile-oxazolone): 0.968
self-aminoacylation (biotinyl-Met-oxazolone): 0.7
self-aminoacylation (biotinyl-Val-oxazolone): 0.919
self-aminoacylation (biotinyl-Leu-oxazolone): 0.885
self-aminoacylation (biotinyl-Trp-oxazolone): 0.516

CUACUUCAAACAAUAGGACUG [Fam1A.1 aminoacylation ribozyme variant]
self-aminoacylation (biotinyl-Phe-oxazolone): 0.544
self-aminoacylation (biotinyl-Ile-oxazolone): 0.633
self-aminoacylation (biotinyl-Met-oxazolone): 0.6
self-aminoacylation (biotinyl-Val-oxazolone): 0.625
self-aminoacylation (biotinyl-Leu-oxazolone): 0.585
self-aminoacylation (biotinyl-Trp-oxazolone): 0.515

CUACUUCAAACAAUAGGGCUG [Fam1A.1 aminoacylation ribozyme variant]
self-aminoacylation (biotinyl-Phe-oxazolone): 0.8
self-aminoacylation (biotinyl-Ile-oxazolone): 0.844
self-aminoacylation (biotinyl-Met-oxazolone): 0.557
self-aminoacylation (biotinyl-Val-oxazolone): 0.631
self-aminoacylation (biotinyl-Leu-oxazolone): 0.523
self-aminoacylation (biotinyl-Trp-oxazolone): 0.391

CUACUUCAAACAAUCCGUCGG [Fam1A.1 aminoacylation ribozyme variant]
self-aminoacylation (biotinyl-Phe-oxazolone): 1.23
self-aminoacylation (biotinyl-Ile-oxazolone): 0.947
self-aminoacylation (biotinyl-Met-oxazolone): 0.867
self-aminoacylation (biotinyl-Val-oxazolone): 0.98
self-aminoacylation (biotinyl-Leu-oxazolone): 0.901
self-aminoacylation (biotinyl-Trp-oxazolone): 0.636

CUACUUCAAACAAUCCGUCUA [Fam1A.1 aminoacylation ribozyme variant]
self-aminoacylation (biotinyl-Phe-oxazolone): 1.07
self-aminoacylation (biotinyl-Ile-oxazolone): 0.801
self-aminoacylation (biotinyl-Met-oxazolone): 0.611
self-aminoacylation (biotinyl-Val-oxazolone): 0.88
self-aminoacylation (biotinyl-Leu-oxazolone): 0.651
self-aminoacylation (biotinyl-Trp-oxazolone): 0.596

From the supplement of paper PMC9233669
